We go through 1 molecule from patent US9980982B2, “HE4 based therapy for malignant disease” (Women & Infants Hospital of Rhode Island, priority 2011, dated 2018).

Entries after “also recorded” stand apart in the source; their conditions may differ.

One assay has as its system SKOV-3 cells. As to the kind of experiment: MTS cell viability assay, parental/wild-type SKOV-3 cells. The following applies: for effect of recombinant HE4 on cisplatin efficacy in SKOV-3 cells: combination or pre-treatment with HE4 (4 ng/mL in FIG. 10B) plus cisplatin. Format: cell-based, Human. On the procedure: Cell growth and viability of cell lines (complete medium, 24 h incubation) was determined by the CellTiter 96® AQueous One Solution Assay (Promega Corp, Madison, Wis.) following the manufacturer's recommendations with modifications (Lange T S et al., 2008 PLOS One, 3(5):e2303). Experiments are expressed as the mean of triplicate determinations (X±SD) of a representative experiment in OD (cell growth) or % of absorbance by drug-treated versus untreated cells [=100%] (cell viability). Cisplatin (CDDP), paclitaxel, doxorubicin and camptothecin (CPT) were purchased from (Sigma Aldrich, St. Louis, Mo.).
To analyze the potential biological relevance of elevated HE4 production for ovarian cancer cells the efficacy of commonly used anticancer drugs was examined in a viability assay (FIG. 5). SKOV-3 clones or parental cells were treated with cisplatin, paclitaxel, doxorubicin, or camptothecin for 24 h in various concentrations as indicated and the cytotoxicity evaluated.

A further assay deals with CaOV-3. As to the kind of experiment: Cell viability, exogenous recombinant HE4, CaOV-3. Format: cell-based, Human.

B1: recombinant HE4: exogenous recombinant human epididymal secretory protein E4 (protein)
chain: EKTGVCPELQADQNCTQECVSDSECADNLKCCSAGCATFCSLPNDKEGSCPQVNINFPQLGLCRDQCQVDSQCPGQMKCCRNGCGKVSCVTPNF
For the molecule B1, the “effect of recombinant HE4 on cisplatin efficacy in SKOV-3 cells” value is on record as “enhanced the efficacy of cisplatin; also recorded: synergized or enhanced suppression of cell-viability” in the assay with SKOV-3 cells and “enhanced the efficacy of cisplatin” with SKOV-3 cells (listed as HE4). In addition, in the assay on SKOV-3 cells (exogenous recombinant HE4), the “effect on viability of SKOV-3 cells” value is reported as “suppressed the viability of SKOV-3 cells”. Besides, in the assay on SKOV-3 cells (proliferating ovarian cancer cells (SKOV-3), read-out: IC50, reduction of cell viability), the IC50 lay in the range of 1 to 8 µM. Further, the “effect on viability of CaOV-3” value with CaOV-3 was “suppressed the viability”.
